From publication PMC9769723

Experiments:
[1] = target: Trichococcus flocculiformis photolyase (TfPHR), class 2 cyclobutane pyrimidine dimer (CPDII) photolyase (Trichococcus flocculiformis); assay: ITC; MicroCal ITC200; both proteins in sonication buffer (150 mM NaCl, 50 mM Tris-HCl pH 7.0) with 0.02% DDM; which protein was in the syringe is not given
[2] = target: Trichococcus flocculiformis photolyase (TfPHR), class 2 cyclobutane pyrimidine dimer (CPDII) photolyase (Trichococcus flocculiformis); assay: shift of the absorption spectrum of the rhodopsin after mixing; purified TfHeR and TfPHR mixed at a 1:4 molar ratio, time-dependent absorption spectra (UV-2450 spectrometer)
[3] = target: Trichococcus flocculiformis photolyase (TfPHR), class 2 cyclobutane pyrimidine dimer (CPDII) photolyase (Trichococcus flocculiformis)
[4] = target: NpSRII (Natronomonas pharaonis) (UniProt P42196); settings: cited from earlier work
Sequence of UniProt P42196 (P42196 whole entry): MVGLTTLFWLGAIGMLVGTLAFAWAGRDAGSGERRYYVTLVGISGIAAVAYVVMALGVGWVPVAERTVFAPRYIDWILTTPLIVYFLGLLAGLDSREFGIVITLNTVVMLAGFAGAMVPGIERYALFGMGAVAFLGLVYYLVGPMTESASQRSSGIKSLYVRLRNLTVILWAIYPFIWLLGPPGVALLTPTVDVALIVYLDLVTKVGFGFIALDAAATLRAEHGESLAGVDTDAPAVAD

## TfHeR E97Q mutant (natural protein)
[1]
  Kd: 121 µM
[2]
  shift of the absorption maximum after mixing (blue shift): 4 nm

## Trichococcus flocculiformis heliorhodopsin (TfHeR) (natural protein)
[3]
  in vitro repair of UV-damaged oligo(dT)20 by TfPHR under white light (absorbance at 265 nm), with TfHeR against TfPHR alone, at saturation: 3 fold
[1]
  Kd: 22 µM
  dH: -18.8 kcal/mol
[2]
  shift of the absorption maximum after mixing (blue shift): 8 nm

## NpHtrII (from UniProt P42259)
[4]
  Kd: 0.65 µM
